To fix the notation:
B1: M0098-C10 (Fab, V domains shown)
VH: EVQLLESGGGLVQPGGSLRLSCAASGFTFSFYSMMWVRQAPGKGLEWVSGISSSGGTTKYADSVKGRFTISRDNSKNTLYLQMNSLRAEDTAVYYCARGGTNYDYVWGSYRSHYYYYGMDVWGQGTTVTVSS
VL: DIQMTQSPSSLSASVGDRVTITCRASHNIYTSLNWLQQKPGKAPKLLIYGASTLENGVPSRFSGSASGTDFTLTISSLQPEDSATYYCQQSYTSVTFGQGTKLEIRR
B2: M0107-D05 (Fab, V domains shown)
VH: EVQLLESGGGLVQPGGSLRLSCAASGFTFSNYHMQWVRQAPGKGLEWVSSIYPSGGFTRYADSVKGRFTISRDNSKNTLYLQMNSLRAEDTAVYYCARDGGQGGWGQGTLVTVSS
VL: DIQMTQSPSTLSASVGDRVTITCRASQSISSWLAWYQQKPGKVPKLLIHAASTLQSGVPSRFSGSGSGTDFTLTISSLQPEDVATYYCQKYNSAPLTFGGGTKVEIKR
B3: M0124-G12 (Fab, V domains shown)
VH: EVQLLESGGGLVQPGGSLRLSCAASGFTFSHYWMRWVRQAPGKGLEWVSSIGSSGGMTKYADSVKGRFTISRDNSKNTLYLQMNSLRAEDTAVYYCARALRWRAFDIWGQGTMVTVSS
VL: DIQMTQSPSSVSASVGDRVTITCRASQGISSWLAWYQQKPGKAPKLLIYAASSLQSGVPSRFSGSGSGTDFTLTISSLQPEDFATYYCQQANSFPLTFGGGTKVEIKR
B4: M0131-D12 (Fab, V domains shown)
VH: EVQLLESGGGLVQPGGSLRLSCAASGFTFSWYNMYWVRQAPGKGLEWVSYIVPSGGATHYADSVKGRFTISRDNSKNTLYLQMNSLRAEDTAVYYCARALRGYSYGPRGYYYYGMDVWGQGTTVTVSS
VL: AQSALTQPPSVSVAPGQTASISCSGNILDNSYASWFQQKPGQSPVMVIHRDNKRPSGIPERFSGSTSGNTATLTISGTQAVDEADYYCQAWDRTTGVFGTGTRLTVLR
B5: M0127-H05 (Fab, V domains shown)
VH: EVQLLESGGGLVQPGGSLRLSCAASGFTFSHYLMGWVRQAPGKGLEWVSSIWPSGGHTSYADSVKGRFTISRDNSKNTLYLQMNSLRAEDTAVYYCARHYGMDVWGQGTTVTVSS
VL: DIQMTQSPSSLSASVGDRVTITCRASQSISSYLNWYQQKPGKVPKLLIYAASSLQSGVPSRFSGSGSGTDFTLTISSLQPDDFATYYCQQTFSTWTFGQGTKVEIRR
B6: M0137-G10 (Fab, V domains shown)
VH: EVQLLESGGGLVQPGGSLRLSCAASGFTFSRYVMHWVRQAPGKGLEWVSYISPSGGVTKYADSVKGRFTISRDNSKNTLYLQMNSLRAEDTAVYYCAKALYPGMGYYYGMDVWGQGTTVTVSS
VL: DIQMTQSPSSLSASVGDRVTITCRTSQTVSTFLNWYQQKPGTAPKLLIYAASRLQSGVPSRFSGSGSETDFTLTISRLQPEDFATYYCQQSFTSPRTFGLGTKVEIKR
B7: M0095-G09 (Fab, V domains shown)
VH: EVQLLESGGGLVQPGGSLRLSCAASGFTFSNYNMHWVRQAPGKGLEWVSVIYPSGGYTVYADSVKGRFTISRDNSKNTLYLQMNSLRAEDTAVYYCARRGNWGGIDYWGQGTLVTVSS
VL: DIQMTQSPSSLSASVGDRVTITCRASQSISNWLAWYQQKPGKAPKLLIYKASTLQTGVPSRFSGSGSGTEFSLTISSLQPDDFATYYCQQTYSAPFNFGPGTKVDIKR
B8: M0095-H10 (Fab, V domains shown)
VH: EVQLLESGGGLVQPGGSLRLSCAASGFTFSNYKMQWVRQAPGKGLEWVSSIYSSGGKTVYADSVKGRFTISRDNSKNTLYLQMNSLRAEDTAVYYCARTPGYNYFDYWGQGTLVTVSS
VL: DIQMTQSPSTLSASVGDRVTITCRASQSISSWLAWYQQKPGKAPKLLIYTASSLESGVPSRFSAGGSGTEFTLTISSLQPDDFGTYYCQQYNSYSLTFGGGTKVEIKR
B9: M0128-F11 (Fab, V domains shown)
VH: EVQLLESGGGLVQPGGSLRLSCAASGFTFSFYVMGWVRQAPGKGLEWVSWIGPSGGRTWYADSVKGRFTISRDNSKNTLYLQMNSLRAEDTAVYYCARDRGWYGIDVWGQGTTVTVSS
VL: DIQMTQSPSSLSASVGDRVTITCRASQYISTYLAWYQQKPGKAPKLLIYKASDLESGVPSRFSGSGSGTEFTLTINSLQPDDFATYYCQQYNTYWTFGHGTKVEIKR
B10: M0122-G06 (Fab, V domains shown)
VH: EVQLLESGGGLVQPGGSLRLSCAASGFTFSWYAMHWVRQAPGKGLEWVSVISPSGGATRYADSVKGRFTISRDNSKNTLYLQMNSLRAEDTAVYYCVRASTVTTLFQHWGQGTLVTVSS
VL: AQSALTQPASVSGSPGQSITISCTGTSSDVGGYNYVSWYQQHPGKAPKLMIYDVSKRPSGVSNRFSGSKSGNTASLTISGLQAEDEADYYCSSYTSSITLVVFGGGTKLTVLS
B11: M0131-A03 (Fab, V domains shown)
VH: EVQLLESGGGLVQPGGSLRLSCAASGFTFSWYTMGWVRQAPGKGLEWVSVIYPSGGMTKYADSVKGRFTISRDNSKNTLYLQMNSLRAEDTAVYYCARTSGGTPWGFWGQGTLVTVSS
VL: AQYELTQPASVSGSPGQSITISCTGTNTDVGGYNYVSWYQQYPGKAPKLMIYEVNHRPSGVSNRFSGSKSGNTASLTISGLQAEDEADYYCSSYTYRNTYVFGTGTKVTVLG
B12: M0094-F03 (Fab, V domains shown)
VH: EVQLLESGGGLVQPGGSLRLSCAASGFTFSWYQMSWVRQAPGKGLEWVSSIYPSGGATKYADSVKGRFTISRDNSKNTLYLQMNSLRAEDTAMYYCARMGLHHSFDYWGQGTLVTVSS
VL: DIQMTQSPGTLSLSLGETATLSCRASQTVGGSYLAWYRQKPGQAPSLLIYAASNRAPGIPDRFSGSGSGTDFTLTISSLQSEDFAVYYCQQYGSSMYTFGQGTILEIKR
B13: M0131-C08 (Fab, V domains shown)
VH: EVQLLESGGGLVQPGGSLRLSCAASGFTFSWYSMTWVRQAPGKGLEWVSSISPSGGATKYADSVKGRFTISRDNSKNTLYLQMNSLRAEDTAVYYCARGGAASLPFDYWGQGTLVTVSS
VL: DIQMTQSPSSVSASVGDRVTITCRASQDVLVSFAWYQQRPGTAPKLLIYAASHLHPGVPSRFSASGSGTDFTLTINGLQPEDFATYYCQQARSFPHTFGQGTRLEKKR
B14: M0112-C12 (Fab, V domains shown)
VH: EVQLLESGGGLVQPGGSLRLSCAASGFTFSRYMMYWVRQAPGKGLEWVSSIYPSGGKTLYADSVKGRFTISRDNSKNTLYLQMNSLRAEDTAVYYCARVGVWYGMDVWGQGTTVTVSS
VL: DIQMTQSPGTLSLSPGERATLSCRASQSVSSSYLAWYQQKPGQAPRLLIYGASSRATGIPDRFSGSGSGTEFTLTISSLQSEDSAVYYCQQYNNWPPLTFGGGTKVEIKR
B15: M0128-A06 (Fab, V domains shown)
VH: EVQLLESGGGLVQPGGSLRLSCAASGFTFSHYKMNWVRQAPGKGLEWVSYIGSSGGKTGYADSVKGRFTISRDNSKNTLYLQMNSLRAEDTALYYCARVGVWYGMDVWGQGTLVTVSS
VL: AQSALTQPPSLSVSAGQTATITCSPSGGGLRNKYVSWYQQRPGQSPFLVIYKDAERPSGIPERFSGSNFGNTATLTIGGTQAMDEADFYCLAWDSTTRVFGGGTKLTVLS
B16: M0117-C04 (Fab, V domains shown)
VH: EVQLLESGGGLVQPGGSLRLSCAASGFTFSHYLMFWVRQAPGKGLEWVSSIWPSGGNTKYADSVKGRFTISRDNSKNTLYLQMNSLRAEDTAVYYCARPAYYYAMDVWGQGTTVTVSS
VL: DIQMTQSPLSLSASVGDRVTITCRASQTFNNYLNWYQQKPGKAPKLLIYAASTLQSGVPSRFSGSGSGTDFTLTISSLQPEDFATYYCQQANSFPFTFGPGTKVDIKR
B17: M0116-C09 (Fab, V domains shown)
VH: EVQLLESGGGLVQPGGSLRLSCAASGFTFSNYKMHWVRQAPGKGLEWVSSIYPSGGWTVYADSVKGRFTISRDNSKNTLYLQMNSLRAEDTAVYYCATGYSSTWGAFDIWGQGTMVTVSS
VL: AQSALTQPPSVSVSPGQTASITCFGDKLGDKYGSWYQQKPGQSPVLVLYQYWKRPSGIPERFSGSNSGNTATLTINVTQTMDEADYYCQAWDSNTVVFGGGTKLTVLG
B18: M0126-B12 (Fab, V domains shown)
VH: EVQLLESGGGLVQPGGSLRLSCAASGFTFSHYVMGWVRQAPGKGLEWVSSIYPSGGKTTYADSVKGRFTISRDNSKNTLYLQMNSLRAEDTAVYYCASPSTGSWSAFDIWGQGTMVTVSS
VL: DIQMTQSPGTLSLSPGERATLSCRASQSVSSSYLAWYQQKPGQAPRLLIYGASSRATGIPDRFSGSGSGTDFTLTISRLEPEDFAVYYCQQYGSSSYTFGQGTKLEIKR
B19: M0099-D05 (Fab, V domains shown)
VH: EVQLLESGGGLVQPGGSLRLSCAASGFTFSNYIMSWVRQAPGKGLEWVSSIWPSGGHTRYADSVKGRFTISRDNSKNTLYLQMNSLRAEDTAVYYCARAGSYYAGDYWGQGTLVTVSS
VL: DIQMTQSPGTLSLSPGERATLSCRASQTVSSNYLAWYQQKPGLAPRLLIYGVSNRAAGIPDRFSGRGSGTDFTLIINRLEPEDFAVYYCQHYGSSAFTFGRGTKLEIER

This assay addresses T1, hK1 (human tissue kallikrein 1), recombinant (human, UniProt P06870 25-262).
T1 construct: Expressed in P. pastoris from KLK1 cDNA and purified; enzymatically active; also called KLK1; Recombinant (Pichia) Kallikrein
Briefly: SPR. For orientation: Surface plasmon resonance follows binding to a sensor surface in real time, without labels.
By Kd is commonly meant the constant that tells how readily two partners part at equilibrium. As usually defined, the koff is a measure of how fast the partners let go of each other. What is called kon is the rate constant with which the complex forms. Regarding B1, the Kd turned out to be 16.1 nM, the koff was found to be 0.00193 s⁻¹ and the on-rate (kon) worked out at 120000 M⁻¹ s⁻¹.

As for B2, the Kd came to 15.3 nM, the dissociation rate constant (koff) was 0.003 s⁻¹ and the kon amounted to 195000 M⁻¹ s⁻¹.

Regarding B3, the dissociation constant Kd turned out to be 17.2 nM, the off-rate (koff) came to 0.0064 s⁻¹ and the kon was 372000 M⁻¹ s⁻¹.

For B4, the Kd worked out at 18.4 nM, the koff turned out to be 0.00193 s⁻¹ and the association rate constant (kon) is 105000 M⁻¹ s⁻¹.

Turning to B5, the Kd was determined as 15.3 nM, the koff stood at 0.00439 s⁻¹ and the association rate constant (kon) is 287000 M⁻¹ s⁻¹.

For B6, the Kd came out at 18.8 nM, the koff worked out at 0.00513 s⁻¹ and the kon stood at 272000 M⁻¹ s⁻¹.

On to B7, for which the dissociation constant (Kd) was 18.6 nM, the koff was 0.0934 s⁻¹ and the on-rate constant (kon) stood at 5.01e+06 M⁻¹ s⁻¹.

For the molecule B8, the Kd was found to be 16.5 nM, the koff amounted to 0.00918 s⁻¹ and the on-rate constant (kon) is 556000 M⁻¹ s⁻¹.

In the case of B9, the Kd came out at 18.3 nM, the koff came out at 0.0143 s⁻¹ and the on-rate constant (kon) worked out at 780000 M⁻¹ s⁻¹.

Regarding B10, the Kd is 15.2 nM, the koff is 0.107 s⁻¹ and the on-rate (kon) came out at 7.08e+06 M⁻¹ s⁻¹.

Turning to B11, the Kd is 17.4 nM, the off-rate constant (koff) is 0.046 s⁻¹ and the kon worked out at 2.65e+06 M⁻¹ s⁻¹.

With B12, the Kd is 16.7 nM and the koff stood at 0.00644 s⁻¹.

Take B13: the Kd stood at 17.7 nM, the dissociation rate constant (koff) worked out at 0.00466 s⁻¹ and the kon came to 264000 M⁻¹ s⁻¹.

For the molecule B14, the dissociation constant Kd amounted to 16 nM, the koff amounted to 0.00465 s⁻¹ and the kon worked out at 290000 M⁻¹ s⁻¹.

Regarding B15, the equilibrium dissociation constant (Kd) turned out to be 18.4 nM, the dissociation rate constant (koff) came out at 0.00612 s⁻¹ and the kon is 332000 M⁻¹ s⁻¹.

B16: the Kd was found to be 16.6 nM, the koff turned out to be 0.00334 s⁻¹ and the kon was found to be 201000 M⁻¹ s⁻¹.

Regarding B17, the Kd worked out at 18.2 nM, the koff amounted to 0.00947 s⁻¹ and the kon is 520000 M⁻¹ s⁻¹.

For B18, the Kd was found to be 15 nM, the off-rate (koff) is 0.00579 s⁻¹ and the kon came out at 385000 M⁻¹ s⁻¹.

For the molecule B19, the Kd was determined as 17.5 nM, the koff worked out at 0.00578 s⁻¹ and the kon was determined as 331000 M⁻¹ s⁻¹.

The values are drawn from US7329737 (DYAX, dated 2008).
